The values that follow come from patent US20110306057A1 (Dana-Farber, published 2011).

Numbering of substitutions follows the chain as printed. Names and notes keep the numbering of the source. Where only a bound is given, the exact number is not on record here.

B1: wild type (WT) FLAG epitope-tagged version of PP2A Aβ (other, UniProt P30154 1-601, looked up, not shown: small tags and cut ends)
chain: MAGASELGTGPGAAGGDGDDSLYPIAVLIDELRNEDVQLRLNSIKKLSTIALALGVERTRSELLPFLTDTIYDEDEVLLALAEQLGNFTGLVGGPDFAHCLLPPLENLATVEETVVRDKAVESLRQISQEHTPVALEAYFVPLVKRLASGDWFTSRTSACGLFSVCYPRASNAVKAEIRQQFRSLCSDDTPMVRRAAASKLGEFAKVLELDSVKSEIVPLFTSLASDEQDSVRLLAVEACVSIAQLLSQDDLETLVMPTLRQAAEDKSWRVRYMVADRFSELQKAMGPKITLNDLIPAFQNLLKDCEAEVRAAAAHKVKELGENLPIEDRETIIMNQILPYIKELVSDTNQHVKSALASVIMGLSTILGKENTIEHLLPLFLAQLKDECPDVRLNIISNLDCVNEVIGIRQLSQSLLPAIVELAEDAKWRVRLAIIEYMPLLAGQLGVEFFDEKLNSLCMAWLVDHVYAIREAATNNLMKLVQKFGTEWAQNTIVPKVLVMANDPNYLHRMTTLFCINALSEACGQEITTKQMLPIVLKMAGDQVANVRFNVAKSLQKIGPILDTNALQGEVKPVLQKLGQDEDMDVKYFAQEAISVLALA
notes: also called wtPP2A Aβ; FLAG-tagged Aβ
B2: cancer-derived FLAG-tagged PP2A Aβ mutant G8R (other, UniProt P30154 1-601, looked up, not shown: small tags and cut ends)
chain: B1 chain with G8R
notes: Overexpressed in HEK TER cells; the shRNA-resistant form carries silent substitutions only; also called G8R Aβ mutant
B3: cancer-derived FLAG-tagged PP2A Aβ mutant L101P/V448A (other, UniProt P30154 1-601, looked up, not shown: small tags and cut ends)
chain: B1 chain with L101P, V448A
notes: Overexpressed in HEK TER cells
B4: PP2A regulatory subunit B55α (other, UniProt P63151 2-447, looked up)
chain: AGAGGGNDIQWCFSQVKGAVDDDVAEADIISTVEFNHSGELLATGDKGGRVVIFQQEQENKIQSHSRGEYNVYSTFQSHEPEFDYLKSLEIEEKINKIRWLPQKNAAQFLLSTNDKTIKLWKISERDKRPEGYNLKEEDGRYRDPTTVTTLRVPVFRPMDLMVEASPRRIFANAHTYHINSISINSDYETYLSADDLRINLWHLEITDRSFNIVDIKPANMEELTEVITAAEFHPNSCNTFVYSSSKGTIRLCDMRASALCDRHSKLFEEPEDPSNRSFFSEIISSISDVKFSHSGRYMMTRDYLSVKIWDLNMENRPVETYQVHEYLRSKLCSLYENDCIFDKFECCWNGSDSVVMTGSYNNFFRMFDRNTKRDITLEASRENNKPRTVLKPRKVCASGKRKKDEISVDSLDFNKKILHTAWHPKENIIAVATTNNLYIFQDKVN
notes: Endogenous protein found in anti-FLAG immune complexes by immunoblot
B5: cancer-derived FLAG-tagged PP2A Aβ mutant P65S (other, UniProt P30154 1-601, looked up, not shown: small tags and cut ends)
chain: B1 chain with P65S
notes: as for B3
B6: HA-tagged wild-type RalA (enzyme, not shown: small tags and cut ends)
chain: MAANKPKGQNSLALHKVIMVGSGGVGKSALTLQFMYDEFVEDYEPTKADSYRKKVVLDGEEVQIDILDTAGQEDYAAIRDNYFRSGEGFLCVFSITEMESFAATADFREQILRVKEDENVPFLLVGNKSDLEDKRQVSVEEAKNRAEQWNVNYVETSAKTRANVDKVFFDLMREIRARKMEDSKEKNGKKKRKSLAKRIRERC
notes: phosphorylation state not separated; also called HA-tagged RalA; HA-RalA
B7: cancer-derived FLAG-tagged PP2A Aβ mutant V448A (other, UniProt P30154 1-601, looked up, not shown: small tags and cut ends)
chain: B1 chain with V448A
notes: as for B3
B8: cancer-derived FLAG-tagged PP2A Aβ mutant K343E (other, UniProt P30154 1-601, looked up, not shown: small tags and cut ends)
chain: B1 chain with K343E
notes: as for B3
B9: cancer-derived FLAG-tagged PP2A Aβ mutant V545A (other, UniProt P30154 1-601, looked up, not shown: small tags and cut ends)
chain: B1 chain with V545A
notes: as for B3
B10: HA-tagged RalA S11A mutant (enzyme, not shown: small tags and cut ends)
chain: B6 chain with S11A
notes: also called S11A RalA mutant
B11: cancer-derived FLAG-tagged PP2A Aβ mutant D504G (other, UniProt P30154 1-601, looked up, not shown: small tags and cut ends)
chain: B1 chain with D504G
notes: as for B3
B12: cancer-derived FLAG-tagged PP2A Aβ mutant L101P (other, UniProt P30154 1-601, looked up, not shown: small tags and cut ends)
chain: B1 chain with L101P
notes: as for B3
B13: GST-tagged SV40 small t antigen (ST) (other)
chain: MDKVLNREESLQLMDLLGLERSAWGNIPLMRKAYLKKCKEFHPDKGGDEEKMKKMNTLYKKMEDGVKYAHQPDFGGFWDATEVFASSLNPGVDAMYCKQWPECAKKMSANCICLLCLLRMKHENRKLYRKDPLVWVDCYCFDCFRMWFGLDLCEGTLLLWCDIIGQTTYRDLKL
notes: also called GST-tagged ST; SV40 ST; not shown: GST tag
B14: cancer-derived FLAG-tagged PP2A Aβ mutant ΔE344-E388 (other)
chain: MDYKDDDDKAGASELGTGPGAAGGDGDDSLYPIAVLIDELRNEDVQLRLNSIKKLSTIALALGVERTRSELLPFLTDTIYDEDEVLLALAEQLGNFTGLVGGPDFAHCLLPPLENLATVEETVVRDKAVESLRQISQEHTPVALEAYFVPLVKRLASGDWFTSRTSACGLFSVCYPRASNAVKAEIRQQFRSLCSDDTPMVRRAAASKLGEFAKVLELDSVKSEIVPLFTSLASDEQDSVRLLAVEACVSIAQLLSQDDLETLVMPTLRQAAEDKSWRVRYMVADRFSELQKAMGPKITLNDLIPAFQNLLKDCEAEVRAAAAHKVKELGENLPIEDRETIIMNQILPYIKCPDVRLNIISNLDCVNEVIGIRQLSQSLLPAIVELAEDAKWRVRLAIIEYMPLLAGQLGVEFFDEKLNSLCMAWLVDHVYAIREAATNNLMKLVQKFGTEWAQNTIVPKVLVMANDPNYLHRMTTLFCINALSEACGQEITTKQMLPIVLKMAGDQVANVRFNVAKSLQKIGPILDTNALQGEVKPVLQKLGQDEDMDVKYFAQEAISVLALA
notes: Deletion of exon 9, in-frame deletion of 45 amino acids; Overexpressed in HEK TER cells; also called D344-388

Test [1] has as its target T1, PP2A regulatory subunit B56ε (human (endogenous in human HEK TER …, UniProt Q16537 2-467, limits assumed)).
T1 construct: Endogenous protein found in anti-FLAG immune complexes by immunoblot
The test is described as follows: anti-FLAG co-IP from HEK TER cells, immunoblot, densitometry; +++ >90%, ++ 50-90%, + <50%.

In test [2] the target is B4. The description is as above.
The target in test [3] is T2, PP2A regulatory subunit B56α (human (endogenous in human HEK TER …, UniProt Q15172 2-486, limits assumed)).
T2 construct: Endogenous protein found in anti-FLAG immune complexes by immunoblot
The description is as above.

The target in test [4] is T3, PP2A catalytic subunit Cα (human (endogenous in human HEK TER or …, UniProt P67775 1-309)).
T3 construct: Endogenous protein found in anti-FLAG immune complexes by immunoblot or mass spectroscopy; also called PP2A catalytic Cα
The test is described as above.

Test [5] concerns the target T4, PP2A regulatory subunit B56γ (human (endogenous in human HEK TER …, UniProt Q13362 1-524)). Described as above.
The target in test [6] is T4, PP2A regulatory subunit B56γ. As to the kind of experiment: anti-FLAG co-IP from HEK TER cells, immunoblot, densitometry.
Test [7] concerns the target B1. The test is described as follows: anti-FLAG co-IP from HEK TER cells, immunoblot.
The target in test [8] is B3. The test is described as follows: anti-FLAG co-IP from HEK TER cells, immunoblot, densitometry.
The target of test [9] is B14. The description is as above.
Test [10] has as its target B1. As to the kind of experiment: reciprocal co-IP (anti-HA, anti-FLAG agarose) from 293T cells, immunoblot.
Protocol: HA-tagged wild-type RalA were generated in the retroviral vectors pPs-neo and pBabe-puro. […] The supernatants from the first immunoprecipitation were sequentially incubated with anti-FLAG-agarose (M2), or anti-HA-agarose (HA7) in reciprocal manner. […] Densitometry analysis was performed by using Scion Image Software.
Test [11] has as its target B1. The test is described as follows: anti-FLAG agarose co-IP from 293T cells, immunoblot.
Protocol: (A) Immunoblot showing phosphorylated RalA and total RalA levels in HEK TER cells expressing shGFP or shAβ. Immunoprecipitations were performed using a phosphoserine antibody. Immunoblotting was performed using anti-Ral-antibody. WCL=whole cell lysate. (B) Immunoblot showing interaction between Aβ and RalA mutants.
To determine if these newly identified serine residues were the target of Aβ-containing PP2A complexes, we replaced each of these three serine residues with alanine using site-directed mutagenesis to generate HA-tagged S11A, S183A and S194A RalA mutants. […] We then determined whether these RalA mutants retained the ability to bind Aβ, as follows. Briefly, Aβ-specific complexes were isolated using anti-FLAG agarose followed by immunoblotting using FLAG or RalA specific antibodies.
Test [12] deals with B1. The test is described as follows: GST pull-down with glutathione-agarose from 293T lysates, immunoblot.

T1 sequence (Q16537 2-467 limits assumed): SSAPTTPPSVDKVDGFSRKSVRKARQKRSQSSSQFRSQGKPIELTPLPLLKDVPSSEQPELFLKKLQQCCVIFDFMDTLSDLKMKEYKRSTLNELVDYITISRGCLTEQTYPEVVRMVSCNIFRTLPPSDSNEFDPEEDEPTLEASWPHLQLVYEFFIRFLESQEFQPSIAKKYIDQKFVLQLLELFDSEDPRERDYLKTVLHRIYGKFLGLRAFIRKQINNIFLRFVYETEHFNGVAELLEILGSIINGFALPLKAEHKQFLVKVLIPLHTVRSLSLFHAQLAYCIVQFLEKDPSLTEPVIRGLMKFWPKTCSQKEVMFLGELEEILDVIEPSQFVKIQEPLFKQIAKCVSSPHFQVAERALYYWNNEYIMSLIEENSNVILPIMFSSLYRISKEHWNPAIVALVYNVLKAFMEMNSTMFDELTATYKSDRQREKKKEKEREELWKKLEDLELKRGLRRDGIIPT
T3 sequence (P67775 whole entry): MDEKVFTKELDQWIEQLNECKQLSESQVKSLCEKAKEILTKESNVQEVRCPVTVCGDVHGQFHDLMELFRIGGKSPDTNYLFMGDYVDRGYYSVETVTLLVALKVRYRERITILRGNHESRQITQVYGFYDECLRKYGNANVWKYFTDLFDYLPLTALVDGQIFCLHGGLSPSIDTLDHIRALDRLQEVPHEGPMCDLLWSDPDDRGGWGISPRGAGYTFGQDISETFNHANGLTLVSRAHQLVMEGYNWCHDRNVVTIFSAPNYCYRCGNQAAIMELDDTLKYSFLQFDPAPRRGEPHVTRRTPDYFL
T4 sequence (Q13362 whole entry): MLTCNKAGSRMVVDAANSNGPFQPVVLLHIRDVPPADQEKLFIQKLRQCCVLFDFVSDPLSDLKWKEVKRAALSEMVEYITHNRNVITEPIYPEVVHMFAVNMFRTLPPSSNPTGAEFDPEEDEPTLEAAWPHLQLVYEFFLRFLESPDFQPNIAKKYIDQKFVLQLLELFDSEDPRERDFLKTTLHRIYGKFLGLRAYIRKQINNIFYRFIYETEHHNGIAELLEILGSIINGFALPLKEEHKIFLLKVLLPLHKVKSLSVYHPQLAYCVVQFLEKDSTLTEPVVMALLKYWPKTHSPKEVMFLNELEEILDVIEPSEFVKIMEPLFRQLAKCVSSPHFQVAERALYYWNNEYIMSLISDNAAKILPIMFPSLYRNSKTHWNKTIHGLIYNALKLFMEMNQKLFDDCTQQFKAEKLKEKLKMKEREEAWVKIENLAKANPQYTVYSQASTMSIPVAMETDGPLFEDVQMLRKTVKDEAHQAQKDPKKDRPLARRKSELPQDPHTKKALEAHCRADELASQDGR
T2 sequence (Q15172 2-486 limits assumed): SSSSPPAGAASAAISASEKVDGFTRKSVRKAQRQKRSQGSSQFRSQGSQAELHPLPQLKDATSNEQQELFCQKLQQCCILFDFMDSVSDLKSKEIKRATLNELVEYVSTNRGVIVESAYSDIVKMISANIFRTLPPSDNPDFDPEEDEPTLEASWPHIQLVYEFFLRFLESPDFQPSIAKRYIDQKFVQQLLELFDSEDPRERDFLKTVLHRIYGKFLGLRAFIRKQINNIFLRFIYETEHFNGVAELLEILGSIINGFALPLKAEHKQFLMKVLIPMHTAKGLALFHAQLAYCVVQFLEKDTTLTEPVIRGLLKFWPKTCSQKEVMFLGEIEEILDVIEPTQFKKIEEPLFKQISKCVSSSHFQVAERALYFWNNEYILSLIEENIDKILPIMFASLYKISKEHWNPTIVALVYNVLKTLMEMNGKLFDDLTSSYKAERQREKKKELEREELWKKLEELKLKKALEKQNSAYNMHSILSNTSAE

B1: the “binding level (percent, co-immunoprecipitation densitometry)” value in test [1], in test [2], in [3] and in test [4] was greater than 90% in each case.

For the molecule B2, the “binding level (percent, co-immunoprecipitation densitometry)” value in test [1] is greater than 90%; in [2], greater than 90%; in test [3] it was greater than 90%; in test [4] it was 50 to 90%; in test [5] it was less than 50%.

Take B3: in test [1], the “binding level (percent, co-immunoprecipitation densitometry)” value was less than 50%. In addition, the binding result in [6] was “no binding”.

Consider B4, for which the binding result was “binds” in test [7], “no binding” in [8] and “no binding” in test [9].

Take B5: the “binding level (percent, co-immunoprecipitation densitometry)” value in test [1] was greater than 90%; in test [2], greater than 90%; in [3], less than 50%; in [4], 50 to 90%; in test [5] it was less than 50%.

For B6, in [10], the binding result is recorded as “binds”.

Consider B7, for which the “binding level (percent, co-immunoprecipitation densitometry)” value in test [1] and in test [2] was less than 50% in each case. Besides, the binding result in [6] was “no binding”.

As for B8, the “binding level (percent, co-immunoprecipitation densitometry)” value in [1] is 50 to 90%; in [2] it was 50 to 90%; in test [3] it was less than 50%; in test [4] it was less than 50%. In test [6], the binding result is recorded as “no binding”.

For the molecule B9, the “binding level (percent, co-immunoprecipitation densitometry)” value in [1] was less than 50%; in test [2], greater than 90%; in [3], less than 50%; in test [4], less than 50%. Moreover, the binding result in test [6] is recorded as “no binding”.

In the case of B10, the binding result in [11] is recorded as “binds”.

B11: the “binding level (percent, co-immunoprecipitation densitometry)” value in [1] is greater than 90%; in test [2], 50 to 90%; in test [3] it was greater than 90%; in test [4], less than 50%. Further, the binding result in test [6] is “no binding”.

For B12, the “binding level (percent, co-immunoprecipitation densitometry)” value in test [1] is greater than 90%; in [2], less than 50%. Also, the binding result in [6] was “no binding”.

B13: the binding result in test [12] is given as “no binding”.

Turning to B14, in [6], the binding result is recorded as “no binding”.
